Assay results published in patent US20170267778A1 (ADC THERPEUTICS S A, published 2017).

B1: Ab4 (antibody, human IgG1, V domains shown)
VH: QVQLVQSGAEVKKTGSSVKVSCKASGYTFTDHAIHWVRQAPGQALEWMGHFSPGNTDIKYNDKFKGRVTLTVDRSMSTAYMELSSLRSEDTAMYYCKTSTFFFDYWGQGTMVTVSS
VL: DIVMTQSPLSLPVTPGEPASISCKSSQSLLNSGDQKNYLTWYLQKPGQSPQLLIYWASTRESGVPDRFSGSGSGTDFTLKISRVEAEDVGVYYCQNDYSYPLTFGGGTKVEIK
notes: Expressed as human IgG1/kappa from pFUSE-CHIg-hG1 and pFUSE2-CLIg-hk vectors; also called 5E5RHA8 / 5E5RKB
B2: Ab6 (antibody, human IgG1, V domains shown)
VH: EVQLVESGAEVKKPGASVEVSCQASGYTFTDHAIHWVRQAPGQGLEWMGHFSPGNTDIKYNDKFKGRVTMTVDRSINTAYMELRRLRSDDTAVYYCKTSTFFFDYWGQGTMVTVSS
VL: B1 VL
notes: Expressed as human IgG1/kappa from pFUSE-CHIg-hG1 and pFUSE2-CLIg-hk vectors; also called 5E5RHC9 / 5E5RKB
B3: Ab1 (antibody, V domains shown)
VH: B1 VH
VL: DIVMTQSPDSLAVSLGERATINCKSSQSLLNSGDQKNYLTWYQQKPGQPPKLLIYWASTRESGVPDRFSGSGSGTDFTLTISSLQAEDVAVYYCQNDYSYPLTFGQGTKVEIK
notes: Expressed as human IgG1/kappa from pFUSE-CHIg-hG1 and pFUSE2-CLIg-hk vectors; also called 5E5RHA8 / 5E5RKA
B4: Ab5 (antibody, human IgG1, V domains shown)
VH: EVQLVQSGAEVKKPGESLKISCKISGYIFTDHAIHWVRQMPGKGLEWMGHFSPGNTDIKYNDKFKGQVTLSVDRSINTAYLQWSSLKASDTAIYFCKTSTFFFDYWGQGTRVTVSS
VL: B1 VL
notes: Expressed as human IgG1/kappa from pFUSE-CHIg-hG1 and pFUSE2-CLIg-hk vectors; also called 5E5RHB10 / 5E5RKB
B5: Ab2 (antibody, V domains shown)
VH: B4 VH
VL: B3 VL
notes: Expressed as human IgG1/kappa from pFUSE-CHIg-hG1 and pFUSE2-CLIg-hk vectors; also called 5E5RHB10 / 5E5RKA
B6: Ab3 (antibody, V domains shown)
VH: B2 VH
VL: B3 VL
notes: Expressed as human IgG1/kappa from pFUSE-CHIg-hG1 and pFUSE2-CLIg-hk vectors; also called 5E5RHC9 / 5E5RKA
B7: Mouse 5E5 (antibody, V domains shown)
VH: QVQLQQSDAELVKPGSSVKISCKASGYTFTDHAIHWVKQKPEQGLEWIGHFSPGNTDIKYNDKFKGKATLTVDRSSSTAYMQLNSLTSEDSAVYFCKTSTFFFDYWGQGTTLTVSS
VL: DIVMTQSPSSLTVTAGEKVTMICKSSQSLLNSGDQKNYLTWYQQKPGQPPKLLIFWASTRESGVPDRFTGSGSGTDFTLTISSVQAEDLAVYYCQNDYSYPLTFGAGTKLELK
notes: V regions were subcloned into pFUSE-CHIg-hG1 (human IgG1) and pFUSE2-CLIg-hk (human kappa) vectors and expressed in HEK293 cells; also called mouse 5E5 antibody; 5E5VH/5E5VK

These binders were tested against T1, Tn-MUC1 on ZR-75-1 cells (human, UniProt P15941 24-1255, Tn glycoform (GalNAcα1-O-Ser/Thr) as expressed by the cells) (assay: flow cytometry on ZR-75-1 cells (protocol 6)).
T1 construct: whole, on cells; also called ZR-75-1 cell line, which expresses Tn-MUC1; Tn-MUC1(+ve) cell line ZR75-1
T1 sequence (P15941 24-1255): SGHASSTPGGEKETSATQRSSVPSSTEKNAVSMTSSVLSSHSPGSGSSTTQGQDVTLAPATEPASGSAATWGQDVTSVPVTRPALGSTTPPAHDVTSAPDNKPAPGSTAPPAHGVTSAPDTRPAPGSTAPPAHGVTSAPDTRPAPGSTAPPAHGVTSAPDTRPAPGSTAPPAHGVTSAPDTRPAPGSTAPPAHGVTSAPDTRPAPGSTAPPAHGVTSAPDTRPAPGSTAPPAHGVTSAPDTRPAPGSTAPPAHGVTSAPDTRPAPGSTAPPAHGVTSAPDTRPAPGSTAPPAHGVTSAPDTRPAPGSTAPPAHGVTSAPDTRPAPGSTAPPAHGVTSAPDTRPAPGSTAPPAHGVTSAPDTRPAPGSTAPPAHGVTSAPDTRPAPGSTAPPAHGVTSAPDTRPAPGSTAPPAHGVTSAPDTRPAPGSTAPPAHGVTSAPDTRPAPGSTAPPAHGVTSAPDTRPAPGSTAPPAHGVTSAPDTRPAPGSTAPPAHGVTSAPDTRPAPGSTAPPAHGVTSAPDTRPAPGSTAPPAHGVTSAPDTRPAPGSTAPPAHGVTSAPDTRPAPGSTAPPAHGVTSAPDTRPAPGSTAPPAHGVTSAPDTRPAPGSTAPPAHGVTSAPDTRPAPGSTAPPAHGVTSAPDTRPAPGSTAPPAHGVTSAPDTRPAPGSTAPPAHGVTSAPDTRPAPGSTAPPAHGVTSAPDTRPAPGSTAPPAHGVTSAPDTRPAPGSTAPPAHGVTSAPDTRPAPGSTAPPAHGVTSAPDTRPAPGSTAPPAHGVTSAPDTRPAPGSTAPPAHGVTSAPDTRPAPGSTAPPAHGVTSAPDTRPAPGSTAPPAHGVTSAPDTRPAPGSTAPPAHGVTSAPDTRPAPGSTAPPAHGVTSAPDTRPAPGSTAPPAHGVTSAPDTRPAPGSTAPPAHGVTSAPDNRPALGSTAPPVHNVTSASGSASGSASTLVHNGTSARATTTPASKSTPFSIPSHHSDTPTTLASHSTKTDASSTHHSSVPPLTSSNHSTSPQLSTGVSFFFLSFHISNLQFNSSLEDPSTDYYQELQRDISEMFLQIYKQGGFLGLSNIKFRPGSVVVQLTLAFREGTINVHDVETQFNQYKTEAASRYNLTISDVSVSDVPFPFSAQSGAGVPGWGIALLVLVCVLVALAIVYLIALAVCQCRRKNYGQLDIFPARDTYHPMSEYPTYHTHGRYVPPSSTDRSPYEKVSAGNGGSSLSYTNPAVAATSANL
Description: Exponentially growing cells are suspended by incubation with cell dissociation buffer enzyme-free, Hanks-based (Gibco 13150-016) following the manufacturer's instructions. A cell count/viability is done on a dilution of 10 ul cells+Trypan Blue, 10 ul, with a haemocytomer. The suspension is centrifuged and the cell pellet re-suspended in binding buffer at 3×10̂6 per ml. If significant levels of aggregates are present in the cell count, the suspension is filtered to remove aggregates. The cell suspension is dispensed (50 ul/well) in 96 well U-bottom plates and cooled on ice for 10 minutes. Primary antibody (50 ul/well) diluted in binding buffer (typically 1 ug per ml or less) is added to each well and incubated at 4° C. for 1 hour. The microplate is centrifuged 5 min at 300-400 g at 4° C., flicked to remove the supernatant and then the cell pellet re-suspended in 200 uL of wash buffer (PBS, 0.1% sodium azide). Centrifugation and re-suspension are done 4 times in all. After the last centrifugation, cells are re-suspended in 50 uL of binding buffer containing the biotin labelled conjugate 1:250 (kept at −20 C: Biotin-SP-AffiniPure F(ab′)2 Fragment Goat antihuman IgG (H+L); Jackson 109-066-088). Cells are incubated for 1 hour at 4 C, then washed 4 times as before. Cells are resuspended in 50 ul of binding buffer containing Streptavidin, Alexa Fluor® 488 conjugate (Life Technologies s11223) diluted 1:250 and Fixable Viability Dye eFluor@780 (eBioscience 65-0865) diluted 1:2000, The cells are incubated at 4° C. for 1 hour and then washed 3 times, as above. Cells are then re-suspended in PBS if reading immediately or fixed in 100 ul of paraformaldehyde (2% (w/v) in PBS) and analysed with by flow cytometer (Accuri C6), gating on live cells which have a lower Fixable Viability Dye MFI compared to dead cells.
IgG binding potency to Tn-MUC1 was measured as per protocol 4 and binding to the ZR-75-1 cell line, which expresses Tn-MUC1, was measured as per protocol 6.

| Binder | EC50 |
| --- | --- |
| B1 | 0.0423 µg/mL |
| B2 | 0.0413 µg/mL |
| B3 | 0.00986 µg/mL |
| B4 | 0.0184 µg/mL |
| B5 | 0.0168 µg/mL |
| B6 | 0.0268 µg/mL |
| B7 | 0.0283 µg/mL |
